In one assay the target is DEBS module 3+TE (Saccharopolyspora erythraea). The experiment in a line: ELISA.
Assay [1] has as its target DEBS3 (bimodular protein of the 6-deoxyerythronolide B synthase) (Saccharopolyspora erythraea, UniProt Q03133). The experiment in a line: SEC-SAXS.

DEBS3 (bimodular protein of the 6-deoxyerythronolide B synthase), sequence (Q03133 whole entry): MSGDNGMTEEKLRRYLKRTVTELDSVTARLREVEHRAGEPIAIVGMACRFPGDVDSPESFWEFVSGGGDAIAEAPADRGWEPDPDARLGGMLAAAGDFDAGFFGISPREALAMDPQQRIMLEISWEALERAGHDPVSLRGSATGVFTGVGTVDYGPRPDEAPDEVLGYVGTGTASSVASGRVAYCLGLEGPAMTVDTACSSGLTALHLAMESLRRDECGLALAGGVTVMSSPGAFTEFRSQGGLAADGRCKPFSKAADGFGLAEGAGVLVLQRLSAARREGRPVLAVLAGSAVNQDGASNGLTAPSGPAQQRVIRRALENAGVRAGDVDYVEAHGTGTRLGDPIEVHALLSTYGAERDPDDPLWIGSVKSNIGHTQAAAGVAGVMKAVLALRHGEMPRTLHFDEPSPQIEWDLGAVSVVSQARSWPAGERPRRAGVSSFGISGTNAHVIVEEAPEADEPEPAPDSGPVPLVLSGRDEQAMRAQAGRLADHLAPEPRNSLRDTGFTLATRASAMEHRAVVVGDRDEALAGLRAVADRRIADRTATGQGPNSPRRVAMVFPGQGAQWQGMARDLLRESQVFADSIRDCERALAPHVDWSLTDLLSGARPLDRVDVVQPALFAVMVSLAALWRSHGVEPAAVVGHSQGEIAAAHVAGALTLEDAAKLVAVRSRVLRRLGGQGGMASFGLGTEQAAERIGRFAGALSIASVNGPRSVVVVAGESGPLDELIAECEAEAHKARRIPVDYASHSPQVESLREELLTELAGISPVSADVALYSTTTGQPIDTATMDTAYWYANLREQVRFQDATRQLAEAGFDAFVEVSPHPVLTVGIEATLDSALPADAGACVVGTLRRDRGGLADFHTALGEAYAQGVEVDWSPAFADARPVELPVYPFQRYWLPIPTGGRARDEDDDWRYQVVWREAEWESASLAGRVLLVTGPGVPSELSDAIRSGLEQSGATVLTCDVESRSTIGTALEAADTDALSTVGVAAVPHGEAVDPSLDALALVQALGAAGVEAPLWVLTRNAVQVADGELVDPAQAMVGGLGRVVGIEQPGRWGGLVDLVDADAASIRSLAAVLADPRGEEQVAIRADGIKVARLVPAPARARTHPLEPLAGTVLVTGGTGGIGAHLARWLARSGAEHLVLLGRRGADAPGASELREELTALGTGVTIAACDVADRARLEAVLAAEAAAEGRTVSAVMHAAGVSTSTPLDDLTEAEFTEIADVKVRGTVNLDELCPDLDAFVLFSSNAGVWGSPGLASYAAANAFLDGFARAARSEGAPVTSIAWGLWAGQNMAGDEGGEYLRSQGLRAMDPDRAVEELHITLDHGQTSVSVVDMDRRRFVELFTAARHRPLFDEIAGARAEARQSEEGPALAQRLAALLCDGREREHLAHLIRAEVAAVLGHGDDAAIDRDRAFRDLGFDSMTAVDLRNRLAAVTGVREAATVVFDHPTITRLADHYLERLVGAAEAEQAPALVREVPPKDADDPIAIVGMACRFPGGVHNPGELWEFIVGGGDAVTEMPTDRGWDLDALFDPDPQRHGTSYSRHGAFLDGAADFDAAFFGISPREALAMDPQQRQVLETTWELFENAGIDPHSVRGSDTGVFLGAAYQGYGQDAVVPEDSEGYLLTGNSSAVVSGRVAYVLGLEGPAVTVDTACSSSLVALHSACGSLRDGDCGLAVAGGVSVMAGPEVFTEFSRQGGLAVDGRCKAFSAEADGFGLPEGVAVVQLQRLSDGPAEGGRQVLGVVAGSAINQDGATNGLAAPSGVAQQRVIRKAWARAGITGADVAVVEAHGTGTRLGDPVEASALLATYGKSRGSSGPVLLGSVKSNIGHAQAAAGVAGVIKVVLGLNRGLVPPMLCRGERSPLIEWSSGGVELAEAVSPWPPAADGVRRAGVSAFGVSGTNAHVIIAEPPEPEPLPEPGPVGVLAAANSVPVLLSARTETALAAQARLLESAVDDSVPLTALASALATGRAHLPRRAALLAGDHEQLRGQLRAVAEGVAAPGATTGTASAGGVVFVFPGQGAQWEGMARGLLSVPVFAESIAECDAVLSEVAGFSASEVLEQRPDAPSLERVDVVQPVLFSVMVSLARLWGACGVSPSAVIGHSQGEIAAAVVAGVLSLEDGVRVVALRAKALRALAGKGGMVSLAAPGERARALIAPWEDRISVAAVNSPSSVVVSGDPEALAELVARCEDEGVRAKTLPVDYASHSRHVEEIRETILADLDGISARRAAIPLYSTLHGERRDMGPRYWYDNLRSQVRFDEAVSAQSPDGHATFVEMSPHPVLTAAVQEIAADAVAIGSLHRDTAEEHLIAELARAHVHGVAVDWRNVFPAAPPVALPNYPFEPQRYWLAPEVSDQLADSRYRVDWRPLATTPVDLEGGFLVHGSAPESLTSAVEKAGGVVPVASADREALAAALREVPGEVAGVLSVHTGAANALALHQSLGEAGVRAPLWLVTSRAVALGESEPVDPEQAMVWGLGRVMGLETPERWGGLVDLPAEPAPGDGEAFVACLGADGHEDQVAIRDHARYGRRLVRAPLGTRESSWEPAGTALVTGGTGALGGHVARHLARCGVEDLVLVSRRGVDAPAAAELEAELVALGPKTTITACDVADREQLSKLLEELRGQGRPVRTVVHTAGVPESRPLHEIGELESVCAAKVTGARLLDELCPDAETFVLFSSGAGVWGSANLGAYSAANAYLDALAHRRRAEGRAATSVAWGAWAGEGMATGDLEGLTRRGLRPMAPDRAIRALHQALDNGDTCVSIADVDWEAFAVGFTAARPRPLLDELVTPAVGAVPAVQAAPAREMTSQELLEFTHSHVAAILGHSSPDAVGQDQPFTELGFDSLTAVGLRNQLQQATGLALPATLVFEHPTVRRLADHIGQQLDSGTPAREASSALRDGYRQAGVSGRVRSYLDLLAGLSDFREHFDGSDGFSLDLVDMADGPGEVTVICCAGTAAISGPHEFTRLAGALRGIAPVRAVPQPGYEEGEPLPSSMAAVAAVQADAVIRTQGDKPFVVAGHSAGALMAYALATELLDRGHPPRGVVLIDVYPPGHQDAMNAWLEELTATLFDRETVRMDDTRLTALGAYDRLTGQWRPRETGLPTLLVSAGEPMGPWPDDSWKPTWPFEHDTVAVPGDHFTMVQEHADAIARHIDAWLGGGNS

B1: Fab 3A6 (Fab, V domains shown)
VH: QVQLQQWGAGLLKPSETLSLTCAVYGGSFSGYYWSWIRQPPGKGLEWIGEINHSGSTNYNPSLKSRVTISVDTSKNQFSLKLSSVTAADTAVYYCARGLGYSGSYYAPNWGQGTLVTVSS
VL: not shown
For the molecule B1, the Kd in the assay with DEBS module 3+TE was determined as 42 ± 12 nM. The binding result in assay [1] is recorded as “binds”.
